Experimental data: patent US20180355034A1 (published 2018)

Experiments:
[1] = target: Recombinant human CD16aV (V polymorphism at position 158 of CD16) (human, UniProt P08637 17-208); assay: SPR; produced in HEK
[2] = target: Recombinant human FcRn (FcRn alpha and beta2-microglobulin) (human, UniProt P55899 24-290; P61769 21-119); assay: SPR; produced in HEK

Recombinant human CD16aV (V polymorphism at position 158 of CD16), sequence (P08637 17-208 F176V): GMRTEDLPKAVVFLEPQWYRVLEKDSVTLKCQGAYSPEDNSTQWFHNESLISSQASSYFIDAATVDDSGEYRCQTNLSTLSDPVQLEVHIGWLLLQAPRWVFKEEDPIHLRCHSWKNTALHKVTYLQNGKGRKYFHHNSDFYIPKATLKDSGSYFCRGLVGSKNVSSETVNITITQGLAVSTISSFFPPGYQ

| Binder | Kd [1] [nM] | Kd [2] [nM] |
| --- | --- | --- |
| T5A-74I (T260A/N315D/A330V/N361D/A378V/N434Y) Fc fragment (other) DKTHTCPPCPAPELLGGPSVFLFPPKPKDTLMISRTPEVACVVVDVSHEDPEVKFNWYVDGVEVHNAKTKPREEQYNSTYRVVSVLTVLHQDWLDGKEYKCKVSNKALPVPIEKTISKAKGQPREPQVYTLPPSRDELTKDQVSLTCLVKGFYPSDIVVEWESNGQPENNYKTTPPVLDSDGSFFLYSKLTVDKSRWQQGNVFSCSVMHEALHYHYTQKSLSLSPGK | 3510 | 32.5 |
| T5A-74K (K290Y/N315D/A330V/N361D/A378V/N434Y) Fc fragment (other) DKTHTCPPCPAPELLGGPSVFLFPPKPKDTLMISRTPEVTCVVVDVSHEDPEVKFNWYVDGVEVHNAKTYPREEQYNSTYRVVSVLTVLHQDWLDGKEYKCKVSNKALPVPIEKTISKAKGQPREPQVYTLPPSRDELTKDQVSLTCLVKGFYPSDIVVEWESNGQPENNYKTTPPVLDSDGSFFLYSKLTVDKSRWQQGNVFSCSVMHEALHYHYTQKSLSLSPGK | 3180 | 16.6 |
| A3A-105D (G316D/K326E/A378V) Fc fragment (other) DKTHTCPPCPAPELLGGPSVFLFPPKPKDTLMISRTPEVTCVVVDVSHEDPEVKFNWYVDGVEVHNAKTKPREEQYNSTYRVVSVLTVLHQDWLNDKEYKCKVSNEALPAPIEKTISKAKGQPREPQVYTLPPSRDELTKNQVSLTCLVKGFYPSDIVVEWESNGQPENNYKTTPPVLDSDGSFFLYSKLTVDKSRWQQGNVFSCSVMHEALHNHYTQKSLSLSPGK | 1210 | 231 |
| T5A-74J (E258I/N315D/A330V/N361D/A378V/N434Y) Fc fragment (other) DKTHTCPPCPAPELLGGPSVFLFPPKPKDTLMISRTPIVTCVVVDVSHEDPEVKFNWYVDGVEVHNAKTKPREEQYNSTYRVVSVLTVLHQDWLDGKEYKCKVSNKALPVPIEKTISKAKGQPREPQVYTLPPSRDELTKDQVSLTCLVKGFYPSDIVVEWESNGQPENNYKTTPPVLDSDGSFFLYSKLTVDKSRWQQGNVFSCSVMHEALHYHYTQKSLSLSPGK | 2820 | 30.2 |
| T5A-74M (Y296W/N315D/A330V/N361D/A378V/N434Y) Fc fragment (other) DKTHTCPPCPAPELLGGPSVFLFPPKPKDTLMISRTPEVTCVVVDVSHEDPEVKFNWYVDGVEVHNAKTKPREEQWNSTYRVVSVLTVLHQDWLDGKEYKCKVSNKALPVPIEKTISKAKGQPREPQVYTLPPSRDELTKDQVSLTCLVKGFYPSDIVVEWESNGQPENNYKTTPPVLDSDGSFFLYSKLTVDKSRWQQGNVFSCSVMHEALHYHYTQKSLSLSPGK | 308 | 27.3 |

The remaining binders from weak to strong by Kd [1], led by results:

| Kd [1] [nM] | Kd [2] [nM] | Binder |
| --- | --- | --- |
| 4400 | 37.9 | T5A-74L (E294A/N315D/A330V/N361D/A378V/N434Y) Fc fragment (other) DKTHTCPPCPAPELLGGPSVFLFPPKPKDTLMISRTPEVTCVVVDVSHEDPEVKFNWYVDGVEVHNAKTKPREAQYNSTYRVVSVLTVLHQDWLDGKEYKCKVSNKALPVPIEKTISKAKGQPREPQVYTLPPSRDELTKDQVSLTCLVKGFYPSDIVVEWESNGQPENNYKTTPPVLDSDGSFFLYSKLTVDKSRWQQGNVFSCSVMHEALHYHYTQKSLSLSPGK |
| 1840 |  | J3B-118A (A378V/P396L/N421T) Fc fragment (other) DKTHTCPPCPAPELLGGPSVFLFPPKPKDTLMISRTPEVTCVVVDVSHEDPEVKFNWYVDGVEVHNAKTKPREEQYNSTYRVVSVLTVLHQDWLNGKEYKCKVSNKALPAPIEKTISKAKGQPREPQVYTLPPSRDELTKNQVSLTCLVKGFYPSDIVVEWESNGQPENNYKTTPLVLDSDGSFFLYSKLTVDKSRWQQGTVFSCSVMHEALHNHYTQKSLSLSPGK |
| 228 | 11.7 | A3A-184A (K334N/P352S/A378V/V397M) Fc fragment (other) DKTHTCPPCPAPELLGGPSVFLFPPKPKDTLMISRTPEVTCVVVDVSHEDPEVKFNWYVDGVEVHNAKTKPREEQYNSTYRVVSVLTVLHQDWLNGKEYKCKVSNKALPAPIENTISKAKGQPREPQVYTLSPSRDELTKNQVSLTCLVKGFYPSDIVVEWESNGQPENNYKTTPPMLDSDGSFFLYSKLTVDKSRWQQGNVFSCSVMHEALHNHYTQKSLSLSPGK |
